Experimental data as given in US20090297439A1 (METHERESIS TRANSLATIONAL RESEARCH, published 2009).

Biological target: T1, Met (UniProt P08581 25-932, limits assumed)
T1 construct: Met as the partner of the printed Kd; The assay and the construct are not described; also called HGFR; hepatocyte growth factor receptor
Experiment: not stated (given as a property of the antibody in Material and Methods)

T1 sequence (P08581 25-932 limits assumed): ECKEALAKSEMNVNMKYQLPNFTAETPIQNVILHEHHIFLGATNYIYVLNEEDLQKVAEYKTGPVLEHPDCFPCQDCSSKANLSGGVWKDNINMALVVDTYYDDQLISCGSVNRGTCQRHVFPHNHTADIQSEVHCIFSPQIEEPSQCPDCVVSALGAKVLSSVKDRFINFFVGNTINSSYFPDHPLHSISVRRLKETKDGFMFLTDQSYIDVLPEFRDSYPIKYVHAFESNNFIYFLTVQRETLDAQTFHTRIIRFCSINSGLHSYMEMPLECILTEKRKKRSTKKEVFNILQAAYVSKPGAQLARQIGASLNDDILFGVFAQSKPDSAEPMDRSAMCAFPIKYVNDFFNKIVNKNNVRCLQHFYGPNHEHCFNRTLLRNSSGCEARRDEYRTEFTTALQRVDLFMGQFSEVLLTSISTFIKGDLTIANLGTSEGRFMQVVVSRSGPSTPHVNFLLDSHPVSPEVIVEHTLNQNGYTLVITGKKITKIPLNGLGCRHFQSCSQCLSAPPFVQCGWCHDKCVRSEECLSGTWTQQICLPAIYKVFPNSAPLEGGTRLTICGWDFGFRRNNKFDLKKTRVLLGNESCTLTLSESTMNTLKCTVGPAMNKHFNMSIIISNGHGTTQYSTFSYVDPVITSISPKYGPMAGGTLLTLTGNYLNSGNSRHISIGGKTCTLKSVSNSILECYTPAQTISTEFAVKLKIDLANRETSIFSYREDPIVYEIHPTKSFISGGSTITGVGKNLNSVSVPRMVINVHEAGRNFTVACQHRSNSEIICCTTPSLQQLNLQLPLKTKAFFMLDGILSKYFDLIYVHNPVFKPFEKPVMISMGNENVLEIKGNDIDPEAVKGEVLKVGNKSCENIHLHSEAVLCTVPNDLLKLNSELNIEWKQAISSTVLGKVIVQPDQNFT

- Kd: 2.64 nM
B1: murine IgG2a MAb DN30 (antibody, V domains shown)
VH: QVQLQQPGTELVKPGASVKLSCKASGYTFTSYWIHWVKQRPGQGLEWIGEINPSSGRTNYNEKFKNKVTVTVDKSSTTAYMQLSNLTSEDSAVYYCASRGYWGQGTTLTVSS
VL: DIVLTQSPASLAVSLGQRATISCKASQSVDYDGGSYMSWFQQRPGQPPKLLISAASNLESGIPARFSGSGSGTDFTLNIHPVEEEDVATYYCQQSYEDPLTFGAGTKLELKR
notes: Murine IgG2a, intact MAb; also called anti-Met monoclonal antibody produced by the hybridoma cell line ICLC PD 05006
